Experimental data taken from paper PMC8363014, “OsMADS23 phosphorylated by SAPK9 confers drought and salt tolerance by regulating ABA biosynthesis in rice”.

B1: OsNCED2-c (probe 3) (dsDNA)
DNA 1: GGGGCTAATAATTAGCCTTCCAAAATTTTGCTATTTATAAGTA
DNA 2: TACTTATAAATAGCAAAATTTTGGAAGGCTAATTATTAGCCCC
modifications: 3' biotin
B2: OsNCED2-a (probe 1) (dsDNA)
DNA 1: AACATTCTATCCCATAAAATTGTGTTTTGTTGCAAATGTCC
DNA 2: GGACATTTGCAACAAAACACAATTTTATGGGATAGAATGTT
modifications: 3' biotin
B3: OsNCED2-b (probe 2) (dsDNA)
DNA 1: GGGGTTGTCTATGTAACATATAATTGGATATATATTCATTCC
DNA 2: GGAATGAATATATATCCAATTATATGTTACATAGACAACCCC
modifications: 3' biotin

target: OsMADS23 (Oryza sativa (rice), UniProt Q6VAM4 1-159); experiment: EMSA; signal reduced by excess unlabeled probe; LightShift Chemiluminescent EMSA kit (Thermo), manufacturer's instructions; buffer, salt, pH and temperature not stated; settings: protein: recombinant; tags: His, trigger factor (pCold-TF); chain copies: 2; label: biotin; blunt
Sequence (Q6VAM4 whole entry): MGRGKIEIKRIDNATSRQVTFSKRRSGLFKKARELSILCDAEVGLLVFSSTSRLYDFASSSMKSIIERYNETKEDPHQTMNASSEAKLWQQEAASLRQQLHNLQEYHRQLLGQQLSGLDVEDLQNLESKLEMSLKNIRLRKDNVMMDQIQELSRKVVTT

Row | Binder | binding result
1 | B1 | binds
2 | B2 | binds
3 | B3 | binds
